Experiment [1] concerns the target T1, 3′hExofl (human, UniProt Q8IV48 1-349).
T1 construct: human 3′hExo (ERI1), full length; Modified pET28a, N-terminal 6x His-tag followed by an HRV-3C site; also called ERI1; full-length 3′hExo; source: E. coli BL21 Star (DE3) pRARE, purified (Ni-NTA, heparin, SEC)
T1 sequence (looked up): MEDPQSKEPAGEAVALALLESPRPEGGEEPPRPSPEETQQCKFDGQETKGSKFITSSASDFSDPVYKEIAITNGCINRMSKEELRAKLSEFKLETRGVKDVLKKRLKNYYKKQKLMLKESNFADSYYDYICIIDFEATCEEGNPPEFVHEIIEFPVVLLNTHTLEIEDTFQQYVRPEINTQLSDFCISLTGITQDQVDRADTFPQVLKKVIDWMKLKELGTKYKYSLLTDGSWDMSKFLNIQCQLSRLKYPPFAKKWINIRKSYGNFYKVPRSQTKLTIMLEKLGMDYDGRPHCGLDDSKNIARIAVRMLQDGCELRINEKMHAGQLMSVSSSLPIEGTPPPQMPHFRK
In words: NMR titration; 1H-15N HSQC of 15N-labelled UPF2-AL or UPF2-ALm with stepwise addition of unlabelled 3′hExo proteins; 298 K; 20 mM HEPES pH 7.0, 100 mM NaCl, 2 mM DTT; KD from twelve amide peaks, one-to-one binding isotherm. The settings on record: both partners purified.

In experiment [2] the target is T2, 3′hExo as used in surface plasmon resonance (human, UniProt Q8IV48 1-349).
T2 construct: human 3′hExo (ERI1); Likely 3′hExofl
T2 sequence (looked up): T1 sequence (looked up)
In words: SPR; format not told in the text shown. To be noted: both partners purified.

What is called Kd is the concentration at which binding is half-saturated. A low value points to tighter binding.

B1: UPF2-ALm (residues 1024–1085) (domain or fragment, human, UniProt Q9HAU5 1024-1085, looked up)
chain: TEGENLEEDEEEEEGGAETEEQSGNESEVNEPEEEEGSDNDDDEGEEEEEENTDYLTDSNKE
notes: human UPF2, residues 1024–1085 of the acidic linker; source: E. coli, purified; 15N-labelled
In experiment [1], B1 yielded a Kd of roughly 200 µM.

B2: UPF2 as used in surface plasmon resonance (domain or fragment)
chain: KKKTEGENLEEDEEEEEGGAETEEQSGNESEVNEPEEEEGSDNDDDEGEEEEEENTDYLTDSNKE
modifications: not fully specified; numbers in words are those of the source; also: modified acidic linker UPF2-ALm, further changes not given here
With B2, in experiment [2], the Kd is roughly 170 µM.

These data come from PMC12775136, “Mechanistic insights into recruitment and regulation of the RNA helicase UPF1 in replication-dependent histone mRNA decay” (Nature Communications, 2025).
